Assay results reported in patent publication US20020019040A1 (LEADD B V, published 2002).

B1: GAL4-activation domain of the empty pACT vector (other)
chain: ANFNQSGNIADSSLSFTFTNSSNGPNLITTQTNSQALSQPIASSNVHDNFMNNEITASKIDDGNNSKPLSPGWTDQTAYNAFGITTGMFNTTTMDDVYNYLFDDEDTPPNPKKE
notes: Negative control of the yeast two-hybrid system
B2: GAL4-activation domain fusion of the AAP-3 cDNA clone (pACT) (other)
chain: HEGPMVGGGGVGGGLLENANPLIYQRSGERPVTAGEEDEQVPDSIDAREIFDLIRSINDPEHPLTLEELNVVEQVRVQVSDPESTVAVAFTPTIPHCSMATLIGLSIKVKLLRSLPQRFKMDVHITPGTHASEHAVNKQLADKERVAAALENTHLLEVVNQCLSARS
notes: Yeast two-hybrid prey; also called Apoptin-associating clone AAP-3

Tests used:
[1] = molecular target: T1, fusion gene product of GAL4-DNA-binding domain and Apoptin (bait plasmid pGBT-VP3) (chicken anemia virus, UniProt P04386 1-147; Q99152 1-121); experiment: yeast two-hybrid control (HIS3 and LacZ reporters)
T1 construct: Yeast two-hybrid bait, expressed in yeast strain Y190; also called pGBT9-VP3; not shown: residues encoded by the EcoRI-NdeI linker

[2] = molecular target: T1, fusion gene product of GAL4-DNA-binding …; experiment: yeast two-hybrid

Binder | binding result [1] | binding result [2]
B1 | no binding | 
B2 |  | binds
